Changes are numbered by the printed parent chain. Names and notes keep the numbering of the source. Values belong to the molecule of their own block, whether it stands above or below them.
Key:
[1] = molecular target: Lrp6 β-propeller domains 1–2 (BP1–2), His8-tagged (human); assay: AlphaScreen or HTRF
crystal structure = molecular target: the molecule itself; assay: crystal structure
[2] = molecular target: T1, MBP-Norrin (human Norrin residues 25–133 fused to the C terminus of maltose-binding protein) (human), Q00604; assay: SEC; conditions: remark: other sources report otherwise
T1 chain: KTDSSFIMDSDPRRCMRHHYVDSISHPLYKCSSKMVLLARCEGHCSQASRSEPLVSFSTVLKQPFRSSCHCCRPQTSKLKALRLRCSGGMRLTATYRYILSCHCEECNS

[3] = molecular target: T2, Fz4-FcH6 (Frizzled 4 cysteine-rich domain fused with an FcH6 tag) (human, UniProt Q9ULV1 40-164); assay: AlphaScreen or HTRF
T2 sequence: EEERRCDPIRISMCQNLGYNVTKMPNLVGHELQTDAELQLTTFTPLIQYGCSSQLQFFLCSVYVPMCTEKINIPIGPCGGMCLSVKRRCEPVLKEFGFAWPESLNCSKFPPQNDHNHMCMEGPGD

[4] = molecular target: T3, Lrp6BP2-FcH6 (Lrp6 β-propeller 2 as an Fc fusion protein) (human, UniProt O75581 325-631); assay: BLI
T3 sequence: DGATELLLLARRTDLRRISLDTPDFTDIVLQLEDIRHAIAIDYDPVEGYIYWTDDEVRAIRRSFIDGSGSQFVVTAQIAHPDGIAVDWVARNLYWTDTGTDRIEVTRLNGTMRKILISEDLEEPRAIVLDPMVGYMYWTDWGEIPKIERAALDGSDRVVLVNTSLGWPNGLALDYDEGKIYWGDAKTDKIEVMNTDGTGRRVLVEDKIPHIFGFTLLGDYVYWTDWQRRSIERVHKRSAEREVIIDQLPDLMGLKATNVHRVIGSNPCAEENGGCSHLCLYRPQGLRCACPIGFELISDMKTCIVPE

[5] = molecular target: T2, Fz4-FcH6 (Frizzled 4 cysteine-rich …); assay: BLI
[6] = molecular target: T3, Lrp6BP2-FcH6 (Lrp6 β-propeller 2 as an …); assay: AlphaScreen or HTRF

Molecule: MBP-Norrin C55A/C110A mutant protein (from UniProt Q00604 25-133) (ligand)
IC50 [1]: 207 nM

B1: MBP-Norrin truncation construct (Norrin residues 31–133 fused with MBP at its N terminus), as crystallized (ligand)
chain: IMDSDPRRCMRHHYVDSISHPLYKCSSKMVLLARCEGHCSQASRSEPLVSFSTVLKQPFRSSCHCCRPQTSKLKALRLRCSGGMRLTATYRYILSCHCEECNS
binding result (crystal structure): binds

B2: MBP-Norrin (human Norrin residues 25–133 fused to the C terminus of maltose-binding protein), Q00604 25-133 (ligand)
chain: T1 chain
stoichiometry N [2]: 2

B3: MBP-Norrin (human Norrin residues 25–133 fused to the C terminus of maltose-binding protein) (ligand)
chain: T1 chain
IC50 [3]: 34 nM
binding result [4]: binds
Kd [5]: 5 nM

B6: MBP-Norrin C55A/C110A mutant protein (ligand)
chain: T1 chain with C31A, C86A
IC50 [3]: 37 nM

Continued, values first:

IC50 [1]: 288 nM
Molecule: MBP-Norrin R41E mutant protein (from UniProt Q00604 25-133) (ligand)

binding result [6]: binds
Kd [3]: 11 nM
B4: biotinylated MBP-Norrin (AviTag-MBP-Norrin, biotinylated in vivo) (ligand)
chain: T1 chain
modifications: biotin on the AviTag (in vivo biotinylation by BirA)

IC50 [3]: 18 nM
B5: MBP-Norrin K54E/R109E mutant protein (ligand)
chain: T1 chain with K30E, R85E
